# Where a chain is given by its changes, count along the chain named.
# T1: corticotropin-releasing hormone (CRH) peptide (human and mouse, UniProt P01143 145-185 (rat entry), not fully specified)
# T1 peptide: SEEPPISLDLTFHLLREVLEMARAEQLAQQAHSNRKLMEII
# B1: PR301777 (antibody, human IgG1, kappa, V domains shown)
# VH: EMKLEESGGGLVQPGGSMKLSCVASGFTFSNYWMNWVRQSPEKGLEWVAEIRLKSNNYATHYAESVKGRFTISRDDSKSGVYLQMNNLGAEDTGIYYCTVGTLVYWGQGTLVTVSA
# VL: DIVLTQSPASLAVSLGQRATISCRASQSVSTSTYNYMHWFQQKPGQPPKLLIKFASNLESGVPARFSGSGSGTDFTLNIHPVEEEDTATFYCQHSWEIPYTFGGGTKLEIKR
# B2: PR302036 (antibody, human IgG1, kappa, V domains shown)
# VH: EMQLVESGGGLVQPGGSLRLSCAASGFTFSNYWMNWVRQAPGKGLEWVAEIRLKSNNYATHYAESVKGRFTISRDDSKSSVYLQMNSLKTEDTAVYYCTVGTLVYWGQGTLVTVSS
# VL: DIVLTQSPDSLAVSLGERATINCRASQSVSTSTYNYMHWFQQKPGQPPKLLIKFASNLESGVPDRFSGSGSGTDFTLTISSLQAEDTAVYYCQHSWEIPYTFGQGTKLEIKR
# B3: PR302029 (antibody, human IgG1, kappa, V domains shown)
# VH: B2 VH with M2V, A49G, S79N, V81L
# VL: B2 VL
# B4: PR302043 (antibody, human IgG1, kappa, V domains shown)
# VH: B2 VH with M2V, R19K, P41S, A49G, S79N, S80T, V81A, V100R
# VL: B2 VL
# B5: PR302050 (antibody, human IgG1, kappa, V domains shown)
# VH: B2 VH with R19K, P41S, S80T
# VL: B2 VL
# B6: PR302038 (antibody, human IgG1, kappa, V domains shown)
# VH: B2 VH
# VL: EIVLTQSPATLSLSPGERATLSCRASQSVSTSTYNYMHWFQQKPGQAPRLLIKFASNLESGIPARFSGSGSGTDFTLTISSLEPEDTAVYYCQHSWEIPYTFGQGTKLEIKR
# B7: PR302031 (antibody, human IgG1, kappa, V domains shown)
# VH: B2 VH with M2V, A49G, S79N, V81L
# VL: B6 VL
# B8: PR302045 (antibody, human IgG1, kappa, V domains shown)
# VH: B2 VH with M2V, R19K, P41S, A49G, S79N, S80T, V81A, V100R
# VL: B6 VL
# B9: PR302052 (antibody, human IgG1, kappa, V domains shown)
# VH: B2 VH with R19K, P41S, S80T
# VL: B6 VL
# B10: PR302066 (antibody, human IgG1, kappa, V domains shown)
# VH: B2 VH with Q13K, S80T
# VL: B6 VL
# B11: PR302041 (antibody, human IgG1, kappa, V domains shown)
# VH: B2 VH
# VL: DIQLTQSPSSLSASVGDRVTITCRASQSVSTSTYNYMHWFQQKPGKAPKLLIKFASNLESGVPSRFSGSGSGTDFTLTISSLQPEDTATYYCQHSWEIPYTFGQGTKLEIKR
# B12: PR302309-5 (antibody, human IgG1, kappa, V domains shown)
# VH: QIQLVQSGPELKKPGETVKISCKASGYTFTNYGMNWVKQAPGKVLKWMGWINTYTGEPIYTDDFKGRFAFSLETSASTAYLQINNLKNEDTATYFCSRSTMITTGGVFAYWGQGTLVTVSA
# VL: DIVMTQTPLSSPVTLGQPASISCRSSQTIVHSDGNTYLEWLQQRPGQPPRLLIYKVSNRFSGVPDRFSGSGAGTDFTLKISRVEAEDVGVYYCFQGSHVPWTFGGGTKVEIKR
# B13: PR302309-6 (antibody, human IgG1, kappa, V domains shown)
# VH: B12 VH
# VL: B12 VL with I2V, L41Y, V88L
# B14: PR302309-13 (antibody, human IgG1, kappa, V domains shown)
# VH: QVQLVQSGSELKKPGASVKVSCKASGYTFTNYGMNWVRQAPGQGLEWMGWINTYTGEPIYTDDFKGRFVFSLDTSVSTAYLQISSLKAEDTAVYYCARSTMITTGGVFAYWGQGTLVTVSS
# VL: DVLMAQTPLSLPVSLGDQASISCRSSQTIVHSDGNTYLEWYLQKPGQSPKLLIYKVSNRFSGVPDRFSGSGSGTDFTLKISRVEAEDLGVYYCFQGSHVPWTFGGGTKLEIKR
# B15: PR302309-17 (antibody, human IgG1, kappa, V domains shown)
# VH: B14 VH
# VL: B12 VL with I2V, T7S, S11L, L41Y, P48S, A72S, V88L
# B16: PR302309-14 (antibody, human IgG1, kappa, V domains shown)
# VH: B14 VH with V2I, A97S
# VL: B14 VL
# B17: PR302309-7 (antibody, human IgG1, kappa, V domains shown)
# VH: B14 VH with V2I, A97S
# VL: B12 VL with I2V, T7S, S11L, L41F, P48S, L51R, A72S
# B18: PR302309-9 (antibody, human IgG1, kappa, V domains shown)
# VH: B14 VH with V2I, A97S
# VL: B12 VL with S11L, P12S, L15P, L41Y, Q42L, R44K, P48S, R50Q, A72S
# B19: PR302309-10 (antibody, human IgG1, kappa, V domains shown)
# VH: B14 VH with V2I, A97S
# VL: B14 VL with L3V, A5T, P12S, S14T, L15P, D17Q, Q18P, K50Q, L109V
# B20: PR302309-12 (antibody, human IgG1, kappa, V domains shown)
# VH: B14 VH with V2I, A97S
# VL: B12 VL with I2V, L41Y, V88L
# B21: PR302309-15 (antibody, human IgG1, kappa, V domains shown)
# VH: QVQLVQSGAEVKKPGASVKVSCKASGYTFTNYGMNWVRQAPGQRLEWMGWINTYTGEPIYTDDFKGRVTITRDTSASTAYMELSSLRSEDTAVYYCARSTMITTGGVFAYWGQGTLVTVSS
# VL: B14 VL
# B22: PR302309-16 (antibody, human IgG1, kappa, V domains shown)
# VH: B21 VH with V2I, R72L, A97S
# VL: B14 VL
# B23: PR302309-19 (antibody, human IgG1, kappa, V domains shown)
# VH: B21 VH with V2I, R72L, A97S
# VL: B12 VL with I2V, T7S, S11L, L41Y, P48S, A72S, V88L
# B24: PR302309-20 (antibody, human IgG1, kappa, V domains shown)
# VH: B21 VH with V2I, R72L, A97S
# VL: B14 VL with L3V, A5T, P12S, S14T, L15P, D17Q, Q18P, K50Q, L109V
# B25: PR302309-21 (antibody, human IgG1, kappa, V domains shown)
# VH: B21 VH with V2I, R72L, A97S
# VL: B12 VL with I2V, L41Y, V88L
# How the values were obtained:
# [1] = molecular target: T1, corticotropin-releasing hormone (CRH) …; test: cell-based or functional assay
# [2] = molecular target: T1, corticotropin-releasing hormone (CRH) …; test: cell-based or functional assay
binder,measurement,setting,value
B1,unlabelled nM value (Table 5 matrix; likely hCRHR1-Luc IC50 as in Tables 6-8),[1],0.674 nM
B2,unlabelled nM value (Table 5 matrix; likely hCRHR1-Luc IC50 as in Tables 6-8),[1],1.4 nM
B3,unlabelled nM value (Table 5 matrix; likely hCRHR1-Luc IC50 as in Tables 6-8),[1],2.65 nM
B4,unlabelled nM value (Table 5 matrix; likely hCRHR1-Luc IC50 as in Tables 6-8),[1],3.87 nM
B5,unlabelled nM value (Table 5 matrix; likely hCRHR1-Luc IC50 as in Tables 6-8),[1],0.572 nM
B6,unlabelled nM value (Table 5 matrix; likely hCRHR1-Luc IC50 as in Tables 6-8),[1],3.34 nM
B7,unlabelled nM value (Table 5 matrix; likely hCRHR1-Luc IC50 as in Tables 6-8),[1],14 nM
B8,unlabelled nM value (Table 5 matrix; likely hCRHR1-Luc IC50 as in Tables 6-8),[1],15.3 nM
B9,unlabelled nM value (Table 5 matrix; likely hCRHR1-Luc IC50 as in Tables 6-8),[1],2.05 nM
B10,unlabelled nM value (Table 5 matrix; likely hCRHR1-Luc IC50 as in Tables 6-8),[1],2.49 nM
B11,unlabelled nM value (Table 5 matrix; likely hCRHR1-Luc IC50 as in Tables 6-8),[1],2.54 nM
B12,hCRHR1-Luc 0.5 nM CRH IC50,[2],0.454 nM
B13,hCRHR1-Luc 0.5 nM CRH IC50,[2],1.08 nM
B14,hCRHR1-Luc 0.5 nM CRH IC50,[2],7.23 nM
B15,hCRHR1-Luc 0.5 nM CRH IC50,[2],6.69 nM
B16,hCRHR1-Luc 0.5 nM CRH IC50,[2],1.68 nM
B17,hCRHR1-Luc 0.5 nM CRH IC50,[2],6.38 nM
B18,hCRHR1-Luc 0.5 nM CRH IC50,[2],6.08 nM
B19,hCRHR1-Luc 0.5 nM CRH IC50,[2],3.2 nM
B20,hCRHR1-Luc 0.5 nM CRH IC50,[2],4.47 nM
B21,hCRHR1-Luc 0.5 nM CRH IC50,[2],10.5 nM
B22,hCRHR1-Luc 0.5 nM CRH IC50,[2],5.47 nM
B23,hCRHR1-Luc 0.5 nM CRH IC50,[2],4.83 nM
B24,hCRHR1-Luc 0.5 nM CRH IC50,[2],3.07 nM
B25,hCRHR1-Luc 0.5 nM CRH IC50,[2],8.44 nM
